IntAct's records for PubMed 18256029

Molecular target: pdcd6_human PDCD6 (UniProt O75340)
Sequence (O75340 whole entry): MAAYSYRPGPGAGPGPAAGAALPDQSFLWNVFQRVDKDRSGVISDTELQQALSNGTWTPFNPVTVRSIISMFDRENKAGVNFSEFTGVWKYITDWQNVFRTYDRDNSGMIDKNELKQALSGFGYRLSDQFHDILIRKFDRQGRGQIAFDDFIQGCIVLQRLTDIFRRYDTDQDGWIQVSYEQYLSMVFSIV

Sequence of Phospholipid scramblase 3 (Homo sapiens), Q9NRY6 F49Y (Q9NRY6 whole entry F49Y): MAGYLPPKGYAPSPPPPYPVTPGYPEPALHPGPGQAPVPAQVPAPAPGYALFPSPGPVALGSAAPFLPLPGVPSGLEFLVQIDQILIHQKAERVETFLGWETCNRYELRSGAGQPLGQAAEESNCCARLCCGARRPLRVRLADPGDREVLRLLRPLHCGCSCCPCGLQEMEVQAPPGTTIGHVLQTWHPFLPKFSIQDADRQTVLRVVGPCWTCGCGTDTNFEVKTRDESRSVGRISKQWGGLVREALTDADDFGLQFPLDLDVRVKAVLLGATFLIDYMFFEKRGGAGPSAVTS
Sequence of Phospholipid scramblase 3 (Homo sapiens), Q9NRY6 P43A;P45A;P47A;P53A (Q9NRY6 whole entry P43A/P45A/P47A/P53A): as the sequence (Q9NRY6 whole entry F49Y) above, with P43A, P45A, P47A, Y49F, P53A counted along it
Sequence of Phospholipid scramblase 3 (Homo sapiens), Q9NRY6 F49A (Q9NRY6 whole entry F49A): as the sequence (Q9NRY6 whole entry F49Y) above, with Y49A counted along it
Sequence of Phospholipid scramblase 3 (Homo sapiens), Q9NRY6 F49A;F52A (Q9NRY6 whole entry F49A/F52A): as the sequence (Q9NRY6 whole entry F49Y) above, with Y49A, F52A counted along it
Sequence of Phospholipid scramblase 3 (Homo sapiens), Q9NRY6 F49L (Q9NRY6 whole entry F49L): as the sequence (Q9NRY6 whole entry F49Y) above, with Y49L counted along it

Substance	effect of a mutation on the interaction
Phospholipid scramblase 3 (Homo sapiens), Q9NRY6 F49Y	decreasing interaction
Phospholipid scramblase 3 (Homo sapiens), Q9NRY6 F49L	decreasing interaction
Phospholipid scramblase 3 (Homo sapiens), Q9NRY6 F49A;F52A	disrupting interaction
Phospholipid scramblase 3 (Homo sapiens), Q9NRY6 P43A;P45A;P47A;P53A	decreasing interaction
Phospholipid scramblase 3 (Homo sapiens), Q9NRY6 F49A	decreasing interaction
